System: MS2 coat protein
Test: apparent KD of MS2 coat protein; designed switch direction (-1 OFF switch, 1 ON switch): 1; higher = weaker reporter binding
Method in brief: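 Each step of the titration lasted 0.8–1.5 h at the lowest concentration and 10–20 min at the highest. The protein, SNAP-549-labelled MS2 coat protein, went from 0.7 or 1.5 nM doubling to 3 µM over RNA switches transcribed on Illumina chips by stalled E. coli RNA polymerase. Normalised cluster fluorescence was curve-fitted, and the per-design median over clusters is given as apparent KD.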

[1] = input ligand: microRNA oligo, concentration not stated
[2] = Eterna round: R95, input ligand: FMN 200 uM
[3] = Eterna round: R95, input ligand: microRNA oligo, concentration not stated
[4] = Eterna round: R95, input ligand: none

## ACUUAGUACAAUUUAGAUCUACAUGAGGAUCACCCAUGUACUGAGGAUAUCAGCUCGAUUAGAGCUGAGAAGGCAGUAGUACUA [SSNG3/9-A2] (Eterna round: R96, puzzle: Same State NG 3)
Input ligand: FMN 200 uM
  apparent KD of MS2 coat protein: 0.0333 µM
[1]
  apparent KD of MS2 coat protein: 0.035 µM
Input ligand: none
  apparent KD of MS2 coat protein: 0.0539 µM

## UUUAGGUACGGGCAGGAUAUGUAUUAAAAUACAUGAGGAUCACCCAUGUGCGGGUAUAACACCCGACAGAAGGGCCAAUCGUACC [Laonerce - 10] (puzzle: Same State 2)
[2]
  apparent KD of MS2 coat protein: 0.0251 µM
[3]
  apparent KD of MS2 coat protein: 0.136 µM
[4]
  apparent KD of MS2 coat protein: 0.251 µM

## AGUCCAGCCAGAGCUGGACAAAAGCAUGUACAUGAGGAUCACCCAUGUUCAUGUACAAGCUUUUUGCUCGUCUUAAG [Mat - hsa-mir-208a - Mod of JL - 64] (puzzle: Sensor for hsa-mir-208a)
[2]
  apparent KD of MS2 coat protein: 0.583 µM
[3]
  apparent KD of MS2 coat protein: 0.0159 µM
[4]
  apparent KD of MS2 coat protein: 0.547 µM

## AAUUUAAUACAUGAGGAUCACCCAUGUAAUACUUGUAAGAUCAAGGAUAUCAGCUCGAUUAGAGCUGAGAAGGUGAUCACAUGU [SSNG3/19-D2] (Eterna round: R96, puzzle: Same State NG 3)
[1]
  apparent KD of MS2 coat protein: 0.0216 µM

## CGACACACGGCAGGAUAUCGAUUCCAAAGGAAUCGAGAAGGGCCUCAUGUCGUGGAAACGUGACAUGAGGAUCACCCAUGUCGC [Omei SS(NG)1 Cv17] (Eterna round: R96, puzzle: Same State NG 1)
Input ligand: FMN 200 uM
  apparent KD of MS2 coat protein: 0.0172 µM
[1]
  apparent KD of MS2 coat protein: 0.011 µM
Input ligand: none
  apparent KD of MS2 coat protein: 0.0169 µM

## UGAGCCGGCACUGAGGAUAUUCAUAUUAAAACAUGAGGAUCACCCAUGUAGGCCAGAAGGCCUUGGGAGAAGGCAGGUCGGCUCU [Mat - Same State 2 - Mod of UCT - D60] (puzzle: Same State 2)
[2]
  apparent KD of MS2 coat protein: 0.0226 µM
[3]
  apparent KD of MS2 coat protein: 0.185 µM
[4]
  apparent KD of MS2 coat protein: 0.334 µM

## AGUCCAGCCUGAGCUGGACAAAAGCAUGUACAUGAGGAUCACCCAUGUCAUGUACAAGCUUUUUGCUCGUCUUAAGA [Mat - hsa-mir-208a - Mod of JL - D21] (Eterna round: R96, puzzle: Sensor for hsa-mir-208a)
Input ligand: FMN 200 uM
  apparent KD of MS2 coat protein: 0.806 µM
[1]
  apparent KD of MS2 coat protein: 0.0162 µM
Input ligand: none
  apparent KD of MS2 coat protein: 0.84 µM

## AUUUAACAAGCUUUUUGCUCGUCUUAUAAACAUGAGGAUCACCCAUGUAAUAGCGUGAGAGUAAUUAAUUUAAUUAU [JMF 100] (puzzle: Sensor for hsa-mir-208a)
[2]
  apparent KD of MS2 coat protein: 0.0155 µM
[3]
  apparent KD of MS2 coat protein: 0.0327 µM
[4]
  apparent KD of MS2 coat protein: 0.0141 µM

## AUACAUGAGGAUCACCCAUGUAAUUAAUUAACUAGUAAGAUCUAGGAUAUCAGCUCGAUUAGAGCUGAGAAGGAGAUCACAUGU [SSNG3/21-A2] (Eterna round: R96, puzzle: Same State NG 3)
[1]
  apparent KD of MS2 coat protein: 0.0293 µM

## AGUCCACGCUGACGUGGACAAAAGCAUGUACAUGAGGAUCACCCAUGUCAUGUACAAGCUUUUUGCUCGUCUUAAUA [Mat - hsa-mir-208a - Mod of JL - D43] (puzzle: Sensor for hsa-mir-208a)
[2]
  apparent KD of MS2 coat protein: 0.478 µM
[3]
  apparent KD of MS2 coat protein: 0.0149 µM
[4]
  apparent KD of MS2 coat protein: 0.549 µM

## GCGAGCGUACUUGCAACAUGAGGAUCACCCAUGUUAACUGGACAGGAUAUGGUACCGUUUCGGUACCAGAAGGGUUUUACAUGU [JL SSNG3 3.65] (Eterna round: R96, puzzle: Same State NG 3)
Input ligand: FMN 200 uM
  apparent KD of MS2 coat protein: 0.0351 µM
[1]
  apparent KD of MS2 coat protein: 0.0291 µM
Input ligand: none
  apparent KD of MS2 coat protein: 0.0356 µM

## CGAUGAUACUUAGGAAGAAGAGUUGAGGUACAUGAGGAUCACCCAUGUCGGAGCUUUUUGCUCGUCAUGAACAGGAA [JR_SHM208a_Sub007] (puzzle: Sensor for hsa-mir-208a)
[2]
  apparent KD of MS2 coat protein: 0.0652 µM
[3]
  apparent KD of MS2 coat protein: 0.0348 µM
[4]
  apparent KD of MS2 coat protein: 0.0795 µM

## GAUAUACAUGAGGAUCACCCAUGUCAUAUGACAUGAGGAUAUGUACAGACUUCGGUCUGUACAGAAGGCAUGUGUC [SS1 - 1011 Omei Mod 1] (puzzle: Same State 1)
[2]
  apparent KD of MS2 coat protein: 0.0605 µM
[3]
  apparent KD of MS2 coat protein: 0.338 µM
[4]
  apparent KD of MS2 coat protein: 0.53 µM

## AUGCCAAAUGGAGGAUAUGGAGCCUUAUUGGCUCCAGAAGGUCGGACAUGAGGAUCACCCAUGUGGCAGUGGUCUAAUGACCAC [Eli NG1ss - 42] (Eterna round: R96, puzzle: Same State NG 1)
Input ligand: FMN 200 uM
  apparent KD of MS2 coat protein: 0.242 µM
[1]
  apparent KD of MS2 coat protein: 0.293 µM
Input ligand: none
  apparent KD of MS2 coat protein: 0.463 µM

## UAAUUAAGUCAAGGAUAUCACGUCGUUUAGACGUGAGAAGGUGACCAAUACAUGAGGAUCACCCAUGUAAUACAUGAAUAAUUA [SSNG1/12-B3] (Eterna round: R96, puzzle: Same State NG 1)
Input ligand: FMN 200 uM
  apparent KD of MS2 coat protein: 0.0355 µM
[1]
  apparent KD of MS2 coat protein: 0.0469 µM
Input ligand: none
  apparent KD of MS2 coat protein: 0.0514 µM

## AAAUAAACACAUGAGGAUCACCCAUGUCCCAAAAUACAAACGCAGGAUAUGGGCACGAACCGUGUCCAGAAGGGCGCAAAAUAC [Esonbia] (Eterna round: R96, puzzle: Same State NG 3)
Input ligand: FMN 200 uM
  apparent KD of MS2 coat protein: 0.0245 µM
[1]
  apparent KD of MS2 coat protein: 0.111 µM
Input ligand: none
  apparent KD of MS2 coat protein: 0.116 µM

## UGGCUCAGACGAGGAUAUAUGCGAUCACAUGAGGAUCACCCAUGUCUCGAGCUUCGGCUCGAGGCAUAGAAGGUGUCUGAGCCU [SSNG2/4-C3] (Eterna round: R96, puzzle: Same State NG 2)
Input ligand: FMN 200 uM
  apparent KD of MS2 coat protein: 0.0239 µM
[1]
  apparent KD of MS2 coat protein: 0.0703 µM
Input ligand: none
  apparent KD of MS2 coat protein: 0.0947 µM

## AGGUAACAUGAGGAUCACCCAUGUAAGGUGAACGUAGGAUAUCGAGGAGGUAGAGUAGGUCGAGAAGGACGAGAAG [JR_SS1_Sub094] (puzzle: Same State 1)
[2]
  apparent KD of MS2 coat protein: 0.139 µM
[3]
  apparent KD of MS2 coat protein: 0.1 µM
[4]
  apparent KD of MS2 coat protein: 0.127 µM

## GGUAGGUUACUACCAAACAUGAGGAUCACCCAUGUAAGUGGGAAGGAUAUGGUACCUUUUAGGUACCAGAAGGUCCAUAUAUUU [JL Fiskers NG3ss - 2 mod 8] (Eterna round: R96, puzzle: Same State NG 3)
Input ligand: FMN 200 uM
  apparent KD of MS2 coat protein: 0.231 µM
[1]
  apparent KD of MS2 coat protein: 0.847 µM
Input ligand: none
  apparent KD of MS2 coat protein: 1.14 µM

## AAUUAUUAACAUGAGGAUCACCCAUGUGUUUUUGGGCUCGUUUUAUUUAUUAUUAUUAUUAUUAUUAUUAUUAUUAA [SB switch1] (puzzle: Sensor for hsa-mir-208a version 2)
[2]
  apparent KD of MS2 coat protein: 0.0853 µM
[3]
  apparent KD of MS2 coat protein: 0.0691 µM
[4]
  apparent KD of MS2 coat protein: 0.154 µM

## AUAAAACAUGAGGAUCACCCAUGUCAACAAAGUCGAGGAUAUGGGCAAUUAAAAUAAGAACCAGAAGGCGAAUAAU [salish99_ss1_r3_025] (puzzle: Same State 1)
[2]
  apparent KD of MS2 coat protein: 0.0264 µM
[3]
  apparent KD of MS2 coat protein: 0.138 µM
[4]
  apparent KD of MS2 coat protein: 0.4 µM

## GGUCGGACUCACAUGAGGAUCACCCAUGUUGGCGAAAGCCGACAGGAUAUCUGUCCGAAAAGGUCAGAGAAGGGUUAACCGACC [Fiskers NG3ss - 61] (Eterna round: R96, puzzle: Same State NG 3)
Input ligand: FMN 200 uM
  apparent KD of MS2 coat protein: 0.397 µM
[1]
  apparent KD of MS2 coat protein: 0.326 µM
Input ligand: none
  apparent KD of MS2 coat protein: 0.159 µM

## UUGCGGGAUUGAGGAUAUUGAGUACAUAUGUUUAACAUGAGGAUCACCCAUGUGGGUUGCGGUAUCGAGAAGGUAACUUACUAC [salish99_SSNG2_r04_805] (Eterna round: R96, puzzle: Same State NG 2)
[1]
  apparent KD of MS2 coat protein: 0.0755 µM

## AAAAGAAACAUGUACCUGAGUACAUGAAAACAUGAGGAUCACCCAUGUAAUAAGCGGGUGGCUCGUCUUAUAAGAAA [JL pocket 27] (Eterna round: R96, puzzle: Sensor for hsa-mir-208a)
Input ligand: FMN 200 uM
  apparent KD of MS2 coat protein: 0.89 µM
[1]
  apparent KD of MS2 coat protein: 0.0704 µM
Input ligand: none
  apparent KD of MS2 coat protein: 0.715 µM

## UCAGAGGCGCUAGGAUAUCUCUCCGAGAAGCAGAGAGAAGGAGUGCGGAACCCAAGACCUACAUGAGGAUCACCCAUGUCUCAA [Eternabot solution 27] (Eterna round: R96, puzzle: Same State NG 1)
Input ligand: FMN 200 uM
  apparent KD of MS2 coat protein: 0.0228 µM
[1]
  apparent KD of MS2 coat protein: 0.0229 µM
Input ligand: none
  apparent KD of MS2 coat protein: 0.0387 µM

## AUUAUUAAUGCAGGAUAUGAUUAACAUGAGGAUCACCCAUGUGGUGUUGUGAGUAAGGAGAGUGAUCAGAAGGGCAAUUUUUUU [JMF's solution 7] (Eterna round: R96, puzzle: Same State NG 2)
Input ligand: FMN 200 uM
  apparent KD of MS2 coat protein: 0.382 µM
[1]
  apparent KD of MS2 coat protein: 0.633 µM
Input ligand: none
  apparent KD of MS2 coat protein: 0.34 µM

## AAUUAUUAACAUGAGGAUCACCCAUGUAUUUAUGUUAGUAUCUAACAUAGUCUUAUUAAGCUUUGUGAUUGUCUUAU [Cole's First Solution] (puzzle: Sensor for hsa-mir-208a version 2)
[2]
  apparent KD of MS2 coat protein: 0.0298 µM
[3]
  apparent KD of MS2 coat protein: 0.0326 µM
[4]
  apparent KD of MS2 coat protein: 0.0388 µM

## GUAGCAUACCGAGGAUAUUCAUAACCGAAAGGAACAUGAGGAUCACCCAUGUGGCGAAAGCCUUGGGAGAAGGCGGAAUGCUAC [Xeonanis - 20 Mod74] (Eterna round: R96, puzzle: Same State NG 2)
Input ligand: FMN 200 uM
  apparent KD of MS2 coat protein: 0.0428 µM
[1]
  apparent KD of MS2 coat protein: 0.291 µM
Input ligand: none
  apparent KD of MS2 coat protein: 0.957 µM

## UAGAAACAUGAGGAUCACCCAUGUGUCAAAGACAUAGGAUAUCACGGCUAAAAUCAGCCGUGAGAAGGGUGGUAAA [Aisbira] (puzzle: Same State 1)
[2]
  apparent KD of MS2 coat protein: 0.0571 µM
[3]
  apparent KD of MS2 coat protein: 0.0611 µM
[4]
  apparent KD of MS2 coat protein: 0.0562 µM

## AUAUGAGAAGCAGGAUAUGCGGAGAAGAAAGAAGCAGAAGGGCUUAUGGGACAACAUGAGGAUCACCCAUGUUCUCUGCGAUGA [AK SSNG1-V2-3.1] (Eterna round: R96, puzzle: Same State NG 1)
Input ligand: FMN 200 uM
  apparent KD of MS2 coat protein: 0.0606 µM
[1]
  apparent KD of MS2 coat protein: 0.148 µM
Input ligand: none
  apparent KD of MS2 coat protein: 0.135 µM

## AGUCCUGAAAAGAAAAUACAGAGAUAUGUACAUGAGGAUCACCCAUGUCAUGUACAAGUUCUAUGCUCGUCAUAUAA [Sensorship 21 - Jieux - Sensor for hsa-mir-208a] (puzzle: Sensor for hsa-mir-208a)
[2]
  apparent KD of MS2 coat protein: 0.202 µM
[3]
  apparent KD of MS2 coat protein: 0.0636 µM
[4]
  apparent KD of MS2 coat protein: 0.262 µM

Reference: the supplement of paper PMC9170038
